Assay results from the supplement of paper PMC9170038.

Tested on: K4 kissing-loop RNA reporter
Assay: apparent KD of K4 kissing-loop reporter; higher = weaker reporter binding
Conditions: Eterna round: R107
Description: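 RNA-MaP round R107: designed RNA switches with theophylline, tryptophan, arginine or FMN aptamers are transcribed on-chip within common flanks. They are titrated with a labelled K4 kissing-loop RNA reporter in RNA-MaP buffer (100 mM Tris pH 7.5, 80 mM KCl, 4 mM MgCl2), without ligand or with the indicated ligand. Median apparent KD per design.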

[1] = input ligand: theophylline 20 uM
[2] = input ligand: tryptophan 2.4 mM
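Further: bound reporter read as fluorescence of individual clusters on recovered sequencing chips by microscopy, with normalized cluster intensities fitted with a binding model.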

Row | Sequence | apparent KD of K4 kissing-loop reporter (input ligand: FMN 200 uM) | apparent KD of K4 kissing-loop reporter (input ligand: arginine 13.2 mM) | apparent KD of K4 kissing-loop reporter (input ligand: none) | apparent KD of K4 kissing-loop reporter [1] | apparent KD of K4 kissing-loop reporter [2]
1 | UGUGCUGUGUAGUGUAAUGUUUUGCGGGAUACCAGAGUCUUUUUAUUCCCUUGGCAGCUUGAGUGAUGUUUGAUGCUGUUCUUGU [bbtbmullin] | 376 nM | 322 nM | 356 nM | 336 nM | 313 nM
2 | GCCGUACGCAUGGAUACCAGAUGGCACUAUAAUCUCCCAGAGUGAUGUUCUGGCCUGCCUAUCCCUUGGCAGCCAUGCGUACGGC | 686 nM | 514 nM | 670 nM | 387 nM | 585 nM
3 | UCGACAGUGAACGAUACCAGCGUCACGUGGCUGGUGGUCACAUGAGUGAUGUUCAUGUAACGCCCUUGGCAGCGUGCACGUAUCC [KL-XTheo-B9] | 234 nM | 206 nM | 220 nM | 199 nM | 199 nM
4 | AAUAAAAUCACGGCCGCCACUGAUGUUAAUAUUAGCAGUGAUGUUGCUAUGUCGUUUUUAUUUAACAGGACCGGGUGAAUAUUUA [JR_ExcTryptoB_Sub013] | 183 nM | 182 nM | 171 nM | 188 nM | 154 nM
5 | UUUUACGAUACGGCCGCCACUGGUGUUAUAUAUUUGCAGGAGUGAUGUUCGUGCGAUCAUUCCAUCAGGACCGGGUAUACGCGGC [theeternabot_sameState_KL_Trp_B_43] | 265 nM | 209 nM | 318 nM | 765 nM | 507 nM
6 | AUCUUGCAUUCGGCCGCCACUAUCGUGCAGUGAUGUUGCGCGAGUGACGCGUCCCGCAGUGCAGGUAGGACCGGGAAUGAUACCC [Erlazaar] | 128 nM | 119 nM | 123 nM | 112 nM | 125 nM
7 | GUGCGGCUAGUGAUGUUGGUUGCGUGGGAAGGAGCGCAGAAACAUGCAGGUAGGUCGCCCACAUCUCGGAUAAGAGACUAAUUCA [Letiisve] | 606 nM | 182 nM | 168 nM | 220 nM | 307 nM
8 | UUUCUUUUCUUUUGCGAUCCUAUCCCUUAUAAGGAUAUCUAGAAAUAGAGAAGGUAUGCAGUGAUGUUGCUUGGGAUAGGAUCGC | 311 nM | 275 nM | 301 nM | 277 nM | 241 nM
9 | CCAUAUUCGUCGGCCGCCACUAUAAGCCAUCAUACAUUGGCUCUGUGAAAGUGAUGUUUUCUUGAUAGGACCGGGACUGUCAGCA [theeternabot_sameState_KL_Trp_B_24] | 975 nM | 739 nM | 1020 nM | 903 nM | 646 nM
10 | AAAUUUAAUAUAUUUAAUUAAUUAUGUGAUACCAGACAUUUAUAAGUCCCUUGGCAGCACAAUGCAGUGAUGUUGCAUAUAAUAA [JR_SSTheophyA_Sub012] | 64.3 nM | 103 nM | 82.1 nM | 77.5 nM | 67.5 nM
11 | CUAUCCCGCCGUGUACGUAAUAUACGGUGCCGAGGACCGGUACGGCCGCCACUCGAUAAGCUUUGUCGGAGUGAUGUUCCGACCG [Maais] | 200 nM | 156 nM | 229 nM | 280 nM | 202 nM
12 | CCAGGUGGAAAAGGAUAUCUAGGAGUGAUGUUCCAUAUGAAAUUAGUUUAUCACCAAACGUCGACCAGAGAAGGUUUCCCAAUUU [theeternabot_exclusion_KL_FMN_B_31] | 246 nM | 252 nM | 287 nM | 489 nM | 254 nM
13 | AGAUUCGGCACGGCCGCCACUUCCGGUGGCUGGUGUCAUGGUGCGCGUGAGUGAUGUUUAUGUGGGAGGACCGGGUGUUGAGUCU [whbob_Ex_Tryp_B_w43] | 974 nM | 411 nM | 898 nM | 592 nM | 603 nM
14 | GGAUAGGAUAGAGGAUAUGGAUUAGGCAAGAAUAACUUGUCAUGUAAAUCCAUGAGGAGUGAUGUUCCAGAAGGCUGUCCUAUCG [MatMod 7 - Jieux - Exclusion - FMN B] | 349 nM | 116 nM | 114 nM | 112 nM | 90.7 nM
15 | UGACUGGACUGAAGGAGCGUUCAGGUAGGUCGCUAUGGAGUGAUGUUCCAUAGAAGGAGCGAACAGGUAGGUCGCAGUCUAGUCU [ArgBS 30 #DoubleAptamer #SwitchBubble] | 181 nM | 100 nM | 111 nM | 167 nM | 120 nM
16 | UGAUACCAGACGGCCGCCACUCCUGCAGUCAAAGACUGCUAGGAAAUAUUCGUCCAGUGAUGUUGGAGGACCGGGUCUGGUAUCU [TrypBX 10 #SwitchBubble #Palindromic #StaticStem] | 791 nM | 600 nM | 740 nM | 633 nM | 894 nM
17 | GCCGUAGAUUGAAGGAGCGAGGCUAAUUAAAGACCGAGUGAUGUUCGGGAGCGUGAAACUCCUCAGGUAGGUCGCAAUCUACGGC | 217 nM | 180 nM | 204 nM | 186 nM | 180 nM
18 | AAAUAUAGUGAUGUUAUAUAUAUAUGUGAUACCAGAGAAAAGAAACUCCCUUGGCAGCACGAGAGAGAAUUUUUUUUUUAUAUAU [AstrosSSTheA#2] | 370 nM | 409 nM | 498 nM | 471 nM | 328 nM
19 | AGAGUUAUAUGAGGAUAUGAGAUAGUUAAUGAGUGAGUUAUAGUGUAGUUUGUUUAGUGAUGUUAUUUAGAAGGCGUGAGUGAUG [ljjlumullin] | 140 nM | 89.4 nM | 122 nM | 133 nM | 88.8 nM
20 | UGCUCACAUAGAGGAUAUCUCAUAUGAGACAGUGAUGUUGUCUCAUAUAGACAUGUAAGUCUCAUGAGAGAAGGCUGUGUGAGCA [FMN B SS t8] | 140 nM | 106 nM | 117 nM | 99.3 nM | 113 nM
21 | AAAGGCAAAGCCCGAGUGAUGUUCGACGAUACCAGCCUCGAUAGAGGCCCUUGGCAGCGUAAAUGAUCACAAAGCCAAGGAAUAA [#OpenEnded 2 #StaticStem] | 310 nM | 244 nM | 268 nM | 248 nM | 261 nM
22 | AUAUUGGUUGAGAGUGAUGUUCCUUGUGUUCGAGGACCGGUACGGCCGCCACUCGGGUAGAAAAUAAAAGAUGUGUUUGAUUUUU [BDazzled - #13 SS Tryptophan A] | 237 nM | 101 nM | 125 nM | 185 nM | 212 nM

Row | Sequence | apparent KD of K4 kissing-loop reporter (input ligand: FMN 200 uM) | apparent KD of K4 kissing-loop reporter (input ligand: arginine 13.2 mM) | apparent KD of K4 kissing-loop reporter (input ligand: none) | apparent KD of K4 kissing-loop reporter [1] | apparent KD of K4 kissing-loop reporter [2]
23 | UACUCUCCUCCUGAUACCAGAUAAAUAUUAAUACAUUAGUGAUGUUAAUGCCCAAACCCGAUCCCUUGGCAGCAGAAUAUGCAGG [theeternabot_sameState_KL_Theo_B_25] | 152 nM | 240 nM | 202 nM | 258 nM | 126 nM
24 | AAGAAGAAUGGAAGGAGCGAGCAGAUAUAACCAGUGAUGUUGGAAAGCCUUAUUGCUUAAGCUCAGGUAGGUCGCCAAGAAGAGA [whbob_Ex_Arginine_B_2t152] | 179 nM | 159 nM | 179 nM | 192 nM | 184 nM
25 | UAUGGAGUGAUGUUCCGUAUGACUGUCGAUACCAGCCUGUGCCUUGGCCCUUGGCAGCGAAAAGCAUCGGCUAAUGUCGCGUCAU [Onaraed] | 201 nM | 191 nM | 194 nM | 221 nM | 184 nM
26 | CUGACGCUGAUACGGUGGCCGGUGGUCGUGCGAGGACCGGUACGGCCGCCACUCGCAUGAGUGAUGUUCAUGUGUCGUCGUCGUC [#05 K4 Tryptophan A Exclusion] | 116 nM | 95.9 nM | 114 nM | 90.2 nM | 123 nM
27 | UAGUCCUCUUCUUAUUUAUUCCCUAAUGCUAAGGAUAUCCGAAUUCGGAGAAGGUAGUGAUGUUACUUGAAGGGACAUAUUUAUU [AK6 Exc FMN A] | 412 nM | 554 nM | 684 nM | 771 nM | 617 nM
28 | AAGCAUUCUUCGGAAUGCAGACCCGCUGAGGAGGAUAUGACGAAAGUCAGAAGGUCUCAGUGAUGUUGAGGCCUCCUCAAUGGUC [whbob_Ex_FMNA__2th181] | 212 nM | 160 nM | 155 nM | 160 nM | 162 nM
29 | AUAUACCAGUGAUGUUGGUAUACUAUCGAUACCAGUAGAUACCAAUACCCUUGGCAGCGAUAAGACCGUACUGUAGCCAGUACUU [Theo A SS t4] | 250 nM | 191 nM | 255 nM | 340 nM | 225 nM
30 | AACCAGCUUACUGUAAGCUGGUUGCUGGAUACCAGCUCGGAAACGAGCCCUUGGCAGCCAGAACUUGCAGUGAUGUUGCAAGUAA [Design11] | 150 nM | 178 nM | 157 nM | 120 nM | 216 nM
31 | ACGUAGUUCUAGGAUACCAGCCAAGGAGCCCAGGACAAAAGUCCUGGCGCCAGUGAUGUUGGCCCUUGGCAGCCUAGAACUACGA [Omei KL Theo B Exc B v4] | 181 nM | 157 nM | 157 nM | 136 nM | 151 nM
32 | UCCAUGCGCGCACGGUACUUGCCCGCAUAUCGAGGACCGGUACGGCCGCCACUCGUGCCAGUGAUGUUGGCCGGAGAGCCUUAUG [theeternabot_sameState_KL_Trp_A_22] | 476 nM | 349 nM | 475 nM | 449 nM | 524 nM
33 | GUAUCGCUAGGAGGAUAUUCCAAUCCGCCUAUAAUAGGUGGUACGGAGUGAUGUUCCGAUUUACGGGAAGAAGGCCUAGUGAUAC [FMN B 17] | 155 nM | 318 nM | 302 nM | 381 nM | 346 nM
34 | GGGCCAUGGUUUUUGCUAGUGAUGUUAGACCGAGGACCGGUACGGCCGCCACUCGGCAAGUCUUUCGUUAGAUCUCUGGGAAGUC [theeternabot_exclusion_KL_Trp_A_45] | 810 nM | 661 nM | 1110 nM | 1160 nM | 578 nM
35 | UUUAUAGUGACGGCCGCCACUAUAUUAAUGUUUAGGUUAGAGUGAUGUUUUGAUUAAUAUUUUUAUAGGACCGGGUUAUAUGUUU [ggbvmullin] | 669 nM | 488 nM | 632 nM | 515 nM | 591 nM
36 | CACCCUGGACAAGGAUAUAUCAUGCGCCAAGGGCAGUGAUGUUGCCACAGGCUUGGGUCCAGUUCGAUAGAAGGUGUCUGGUAUU [theeternabot_sameState_KL_FMN_B_4] | 203 nM | 174 nM | 244 nM | 159 nM | 183 nM
37 | CGAGUGAUGUUCGUUCGUAUAUUUGGGUGACAGGAUAUGCGGAAACGCAGAAGGGUCACCUUCGGGUUACCCGAAUUGGCGUUAU [Model 1] | 372 nM | 275 nM | 427 nM | 322 nM | 298 nM
38 | AAGCAGUCACUCGAAACCAUCGAAGAUGGACGAGGACCGGUACGGCCGCCACUCGGAGUGAUGUUCCGAAGACUGCAAAAUAAAA | 373 nM | 374 nM | 374 nM | 434 nM | 370 nM
39 | UAUGUACACGGGUAGUGGUACAUCGAGGAAGGAGCGUGCGCAGGCACAGGUAGGUCGCCUCAGCGCACGAGUGAUGUUCGUGGGC [Inares] | 327 nM | 259 nM | 306 nM | 298 nM | 265 nM
40 | GAAGGUCAAAGACCUUCGUGCACACCUGAUACCAGUCGCGAAAGCGACCCUUGGCAGCAGGGUAGUGAUGUUGCCAGUGCACAAA [#14 K4 Theophylline A Same State] | 865 nM | 735 nM | 797 nM | 595 nM | 732 nM
41 | AGCCAGGAACUUGCAACCUGGCUGCUGGAUACCAGCUCGGAAACGAGCCCUUGGCAGCCAGUACUUGCAGUGAUGUUGCAAGUUC [Design13] | 72.2 nM | 37.3 nM | 153 nM | 25.9 nM | 290 nM
42 | AAGUGAUGUUGUAGUGAUGUUGUGAUGUUGCAGGAUAUAUAGUGAUGUAGAAGGGUAAGUACUGAUGUUGUUAGUAAGUGAUGUU [tvvbmullin] | 106 nM | 50.1 nM | 89.9 nM | 76.6 nM | 77.8 nM
43 | AUCACAGUGAUGUUGUGAUAUGAUUCAGAUACCAGACUAGUGCUAGUCCCUUGGCAGCUGAACUCAGCAGCACCACUAGCACUCU [Theo A Ex t6] | 157 nM | 132 nM | 148 nM | 166 nM | 149 nM
